Our source for the fold lower potency as inhibitor of multiple myeloma cell proliferation, against the corresponding analog with pipecolic acid in position 3 values is US20150104388A1.

The target in this test is PAC1 receptor (human) (UniProt P41586). Description: cell-based or functional assay.
Chain of PAC1 receptor (human) (P41586 21-468): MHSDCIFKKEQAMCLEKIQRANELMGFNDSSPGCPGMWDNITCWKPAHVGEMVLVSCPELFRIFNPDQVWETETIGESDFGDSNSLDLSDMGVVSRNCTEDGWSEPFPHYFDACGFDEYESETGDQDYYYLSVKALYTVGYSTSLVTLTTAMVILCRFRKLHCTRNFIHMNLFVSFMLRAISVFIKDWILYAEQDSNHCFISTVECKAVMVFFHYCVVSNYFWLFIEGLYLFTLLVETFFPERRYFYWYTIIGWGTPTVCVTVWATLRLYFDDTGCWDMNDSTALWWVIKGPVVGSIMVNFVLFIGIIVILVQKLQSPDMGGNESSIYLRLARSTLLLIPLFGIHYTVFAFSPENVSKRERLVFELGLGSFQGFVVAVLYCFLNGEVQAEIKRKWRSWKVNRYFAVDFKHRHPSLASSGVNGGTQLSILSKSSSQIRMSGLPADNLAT

In the case of “PACAP38 analog with nipecotic acid in position 3 (peptide)”, the fold lower potency as inhibitor of multiple myeloma cell proliferation, against the corresponding analog with pipecolic acid in position 3 was 10000 fold.
